Source: US20150098900A1 (Genentech, published 2015)
Where a chain is given by its changes, count along the chain named.

What was measured:
[1] = molecular target: T1, human FcRH5c (full length human FcRH5) (human, UniProt Q96RD9 16-977); assay: FACS, OPM2 cells transfected with human FcRH5, anti-mouse Alexa-647; negative control
T1 construct: Used on transfected SVT2, 293, EJM and OPM2 cells and endogenously on MOLP-2 cells and CD19+ B cells; also called IRTA2c; huFcRH5
T1 sequence: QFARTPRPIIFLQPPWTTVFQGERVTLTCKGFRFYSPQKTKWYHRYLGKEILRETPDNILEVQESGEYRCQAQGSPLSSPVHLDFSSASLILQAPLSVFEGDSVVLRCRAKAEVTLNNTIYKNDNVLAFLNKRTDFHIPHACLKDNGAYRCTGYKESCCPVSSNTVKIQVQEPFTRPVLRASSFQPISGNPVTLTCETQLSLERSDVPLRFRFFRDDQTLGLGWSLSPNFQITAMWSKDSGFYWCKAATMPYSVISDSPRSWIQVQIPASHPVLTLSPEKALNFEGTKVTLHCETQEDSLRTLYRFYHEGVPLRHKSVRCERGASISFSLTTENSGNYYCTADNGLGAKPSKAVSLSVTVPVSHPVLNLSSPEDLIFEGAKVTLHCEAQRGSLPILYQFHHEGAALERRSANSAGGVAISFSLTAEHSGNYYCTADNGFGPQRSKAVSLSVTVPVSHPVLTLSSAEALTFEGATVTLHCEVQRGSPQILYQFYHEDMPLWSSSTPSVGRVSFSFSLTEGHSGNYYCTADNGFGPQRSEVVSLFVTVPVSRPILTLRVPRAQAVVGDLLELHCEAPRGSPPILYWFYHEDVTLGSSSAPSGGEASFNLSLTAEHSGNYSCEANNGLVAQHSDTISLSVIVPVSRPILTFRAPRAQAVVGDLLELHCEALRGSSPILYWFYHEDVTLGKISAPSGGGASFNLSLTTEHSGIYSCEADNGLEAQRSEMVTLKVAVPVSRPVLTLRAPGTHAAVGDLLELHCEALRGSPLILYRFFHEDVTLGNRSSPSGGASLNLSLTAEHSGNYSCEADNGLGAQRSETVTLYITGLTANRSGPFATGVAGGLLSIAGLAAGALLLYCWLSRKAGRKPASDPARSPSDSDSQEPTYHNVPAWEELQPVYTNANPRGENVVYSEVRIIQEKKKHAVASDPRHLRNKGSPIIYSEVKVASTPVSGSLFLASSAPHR

[2] = molecular target: T1, human FcRH5c (full length human FcRH5); assay: FACS, EJM cells transfected with human FcRH5, anti-mouse Alexa-647; negative control
[3] = molecular target: T2, FcRH3 endogenously expressed on human NK cells (CD56+ cells of PBMC) (human, UniProt Q96P31 18-734); assay: FACS, CD56+ NK cells of human PBMC, anti-mouse APC
T2 construct: whole, on cells; FcRH1 was also detected on CD56+ cells; also called endogenously expressed FcRH3
T2 sequence (looked up): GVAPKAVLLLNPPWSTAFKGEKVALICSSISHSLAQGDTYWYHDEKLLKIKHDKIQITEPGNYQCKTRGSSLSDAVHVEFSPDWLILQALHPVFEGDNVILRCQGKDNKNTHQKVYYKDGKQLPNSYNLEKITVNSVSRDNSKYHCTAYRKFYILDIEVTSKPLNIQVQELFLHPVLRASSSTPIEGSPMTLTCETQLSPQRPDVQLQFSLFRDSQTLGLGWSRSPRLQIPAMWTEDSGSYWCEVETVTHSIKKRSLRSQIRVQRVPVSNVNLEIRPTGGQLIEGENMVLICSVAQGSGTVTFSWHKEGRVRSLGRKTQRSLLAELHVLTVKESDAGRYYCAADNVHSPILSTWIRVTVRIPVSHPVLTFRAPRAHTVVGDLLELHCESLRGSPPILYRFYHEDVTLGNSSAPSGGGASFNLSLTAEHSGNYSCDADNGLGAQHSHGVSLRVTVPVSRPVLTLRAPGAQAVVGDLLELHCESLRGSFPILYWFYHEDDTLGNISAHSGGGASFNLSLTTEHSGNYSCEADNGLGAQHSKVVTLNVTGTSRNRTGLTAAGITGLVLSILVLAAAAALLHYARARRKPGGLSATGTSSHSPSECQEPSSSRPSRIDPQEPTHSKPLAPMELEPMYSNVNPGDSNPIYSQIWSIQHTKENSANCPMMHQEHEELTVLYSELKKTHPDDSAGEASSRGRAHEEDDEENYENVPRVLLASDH
Method: (§1) To test binding to endogenously FcRH5 expressing cancer cells or FcRH5 transfected cancer cells, cells were lifted using EDTA/PBS. 1×10⁵ cells were suspended in 100 ul and incubated […] with primary antibodies (1 volume of non-IgG quantitated subclone supernatant, 4 ug/ml IgG quantified subclone supernatant or […] purified monoclonal antibodies). Cells were washed twice with FACS buffer (PBS 1% BSA 2 mM EDTA) and incubated with 1:1000 dilution of goat anti-mouse secondary labeled with PE or 1:100 of goat anti-mouse APC. Cells were washed twice with FACS buffer and Flow cytometry analysis was done on a FACSCalibur. Direct […] of antibodies was done according to manufacturer's protocol (Invitrogen), when indicated. To analyze binding to NK or B cells, 1 million human PBMC were incubated with 4 ug/ml IgG quantified subclone supernatants for 60 min, washed and incubated with 1:100 dilution of goat anti-mouse secondary labeled with APC. Cells were then washed again twice and stained using anti-CD56 (PE; BD Biosciences #555516) and anti-CD19 (PE; BD Biosciences #340364) prior flow cytometry and analysis of binding to human CD56+ and CD19+ cells.
Since the overall signal in the FcRH3-expressing SVT2 cells was low, further testing was done using PBMCs from healthy donors. […]

[4] = molecular target: T3, soluble FcRH5a isoform with C-terminal HIS-expression tag (human, UniProt Q96RD9-3 16-759); assay: ELISA, His-tagged soluble FcRH5a captured by anti-His, anti-mouse HRP, OD 650
T3 construct: mature; also called IRTA2a
T3 sequence (looked up): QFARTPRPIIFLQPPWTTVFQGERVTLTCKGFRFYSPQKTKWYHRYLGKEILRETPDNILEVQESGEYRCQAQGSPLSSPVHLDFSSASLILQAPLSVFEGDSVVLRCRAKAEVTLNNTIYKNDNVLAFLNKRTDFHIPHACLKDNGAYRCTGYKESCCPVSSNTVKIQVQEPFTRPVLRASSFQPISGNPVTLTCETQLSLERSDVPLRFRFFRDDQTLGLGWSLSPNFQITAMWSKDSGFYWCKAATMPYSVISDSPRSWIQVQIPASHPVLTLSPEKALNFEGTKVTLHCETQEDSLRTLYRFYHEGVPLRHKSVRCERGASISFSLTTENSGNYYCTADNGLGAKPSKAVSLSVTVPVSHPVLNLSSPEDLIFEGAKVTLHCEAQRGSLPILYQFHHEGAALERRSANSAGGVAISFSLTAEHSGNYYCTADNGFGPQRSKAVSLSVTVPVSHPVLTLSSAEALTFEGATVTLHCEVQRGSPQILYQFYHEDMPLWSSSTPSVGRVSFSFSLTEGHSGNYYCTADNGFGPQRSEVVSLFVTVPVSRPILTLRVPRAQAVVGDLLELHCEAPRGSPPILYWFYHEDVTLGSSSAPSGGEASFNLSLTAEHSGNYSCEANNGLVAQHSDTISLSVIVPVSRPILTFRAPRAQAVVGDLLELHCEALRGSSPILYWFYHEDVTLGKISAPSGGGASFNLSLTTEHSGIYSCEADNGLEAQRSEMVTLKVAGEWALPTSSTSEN
Method: For this, 293 cells were transfected to express the soluble isoform with C-terminal HIS-expression tag. Expression of FcRH5a protein was confirmed with Western blot analysis using anti-HIS antibody. A 65 kD band was detected in conditioned media from FcRH5a but not vector transfected cells (not shown). For the ELISA, plates were coated with anti-HIS capture antibody and incubated 1 hour with 1:10 diluted conditioned media including the HIS-tagged soluble FcRH5a isoform. The E11 monoclonal antibodies were used for detection in 1-0.001 ug/ml concentration, incubated for 1 hour followed by incubation with goat anti-mouse HRP antibody and finally with TMB-substrate.

[5] = molecular target: T1, human FcRH5c (full length human FcRH5); assay: FACS, APC-labelled antibodies on SVT2 cells with full-length human FcRH5
[6] = molecular target: T1, human FcRH5c (full length human FcRH5); assay: FACS, 293 cells with wild type FcRH5c, supernatants 2.5 ug/ml, anti-mouse PE
Method: Two separate tests were designed to address dependency of binding on the presence of membrane proximal Ig-domain 9 (E11). First a truncated human FcRH5c mutant was generated that lacks Ig-domains 6-9 (amino acids 464-850 of SEQ ID NO:1) including the expected binding site for the antibodies derived from E11 immunization. This construct with N-terminal gD-tag was expressed in 293 cells and subjected to 2.5 ug/ml subclone supernatants followed by PE labeled goat anti-mouse secondary antibody (1:1000 dilution). None of the tested subclones bound to 293 cells that express the truncated human FcRH5c (FIG. 4A). In contrast binding was detected to 293 cells that express wild type human FcRH5c. Binding of gD or non-isoform selective antibody clone (10A8) was not altered by the mutation.

[7] = molecular target: T1, human FcRH5c (full length human FcRH5); assay: FACS, MOLP2 cells (endogenous FcRH5), 4 ug/ml; legend printed under FIG. 3E
Method: as §1

[8] = molecular target: T1, human FcRH5c (full length human FcRH5); assay: FACS, MOLP2 cells (endogenous FcRH5), 4 ug/ml
Method: as §1

**Q.** Which results are given for mIgG (antibody)?
**A.** Mean:FL4-H [1]: 6.43; Mean:FL4-H [2]: 10.3

B1: 1G7.2 (antibody, IgG1, V domains shown)
VH: EVQLQESGPGLVQPSQSLSITCTVSGFSLTRFGVHWVRQSPGKGLEWLGVIWRGGSTDYNAAFMSRLTITKDNSKSQVFFKLNSLKVDDTAIYYCSNHYYGSSDYALDNWGQGTSVTVSSASTKGPSVFPLAP
VL: DIVMTQSHKIMSTSVGDRVSITCKASQDVSNIVVWFQQKPGQSPNLLIYSASYRYTGVPDRFTGSGSGTDFTFTISSVQAEDLAVYYCQQHYSSPYTFGGGTKLEIKRTVAA
notes: Parent 1G7, subclone 1G7.2 and purified 1G7.2.mIgG1 treated as one antibody; also called 1G7.2.mIgG1
**Q.** Does B1 bind [3]?
**A.** Result: no binding (tested: 4 ug/ml)

**Q.** Does B1 bind [4]?
**A.** Result: no binding

**Q.** Does B1 bind [5]?
**A.** Result: binds

B2: 2H7.3 (antibody, IgG2b, V domains shown)
VH: EVQLQQSGPELWKPGASVKMSCKASGYTFTDYYMKWVKQTHGKSLEWIGDINPNNGETFYSQKFKGKATLTVDKSSTTAYMQLNSLTSEDSAVYYCARGLYRFDYWGQGTTLTVSSASTKGPSVFPLAP
VL: EIVLTQSPATLSVTPGDSVSLSCRASQNIRNNLHWYQQKSHESPRLLIKFTSQSISGIPSRFTGSGSGTDFTLSINSVETEDFGMYFCQQSNNWPQYTFGGGTKLEIKRTVAA
notes: Parent 2H7, subclone 2H7.3 and purified antibody treated as one; also called 2H7.3.mIgG2b
**Q.** Does B2 bind [6]?
**A.** Result: binds

**Q.** Does B2 bind [4]?
**A.** Result: binds

B3: 5A10.1.3 (antibody, IgG2b, V domains shown)
VH: EVQLQQSGPELWKPGASVKMSCKASGYTFTDYYMKWVKQSHGKSLEWIGDINPNNGETFYNQKFKGKATLTVDKSTSTAYMELNSLTTEDSAVYYCARGLYRFDYWGQGTTLTVSSAASTKGPSVFPLAP
VL: B2 VL with E1D, T10N, T14I, H41Q, T51A, I55M, I58T, S74T, S77T
notes: parent 5A10 and subclone 5A10.1 treated as the same antibody; also called 5A10.1.mIgG2b
**Q.** B3 was tested. Which “EC50 (read off the curve)” value [4] did it give?
**A.** Its value is roughly 0.02 ng/mL.

B4: 5F1.1.5 (antibody, IgG2a, V domains shown)
VH: QVQLQQSGADLVRPGTSVKVSCKASGYAFTNYLIEWVKQRPGQGLEWIGVINPGSGGTNYNEKFKGKATLTADKSSSTAYMQLSSLTSDDSAVYFCARTRNYGYVIDYWGQGTTLTVSSASTKGPSVFPLAP
VL: QAVVTQESALTTSPGETVTLTCRSSTGTVTTSNFANWVQEKPDHLFTGLIGGTSNRAPGVPARFSGSLIGDKAALTITGAQTEDEAIYFCVLWCSNLWVFGGGTKLTVLGQPKAA
notes: parent 5F1 and subclone 5F1.1 treated as the same antibody; also called 5F1.1.mIgG2a
**Q.** Does B4 bind [7]?
**A.** Result: binds

B5: 3G7.1.5 (antibody, IgG2a, V domains shown)
VH: EVQLQQSGPELVKPGASVKMSCKASGYTFTDYYMKWVRQNHGKRLEWIGDINPYNGDTFYNQKFKDKATLTVDKSSSTAYMQFNSLTSEDSAVYYCARGLYFFHYWGQGTTLTVSSASTKGPSVFPLAP
VL: DIVLIQSPATLSVTLGGSVSLSCRASQSISNNLHWYQQKSHESPRLLIKFASQSISGIPSRFRGSGSGTDFTLTINSVETEDFGIYFCQQSNNWPQYTFGGGTKLELKRTVAA
notes: parent 3G7 and subclone 3G7.1 treated as the same antibody; also called 3G7.1.mIgG2a
**Q.** Does B5 bind [8]?
**A.** Result: binds
